One assay concerns the target T1, NCA-95 (HeLa-CGM6/1) (Homo sapiens, UniProt P31997).
T1 construct: expressed in transfected cells; host or cells: HeLa (HeLa-CGM6/1)
T1 sequence (P31997 35-320): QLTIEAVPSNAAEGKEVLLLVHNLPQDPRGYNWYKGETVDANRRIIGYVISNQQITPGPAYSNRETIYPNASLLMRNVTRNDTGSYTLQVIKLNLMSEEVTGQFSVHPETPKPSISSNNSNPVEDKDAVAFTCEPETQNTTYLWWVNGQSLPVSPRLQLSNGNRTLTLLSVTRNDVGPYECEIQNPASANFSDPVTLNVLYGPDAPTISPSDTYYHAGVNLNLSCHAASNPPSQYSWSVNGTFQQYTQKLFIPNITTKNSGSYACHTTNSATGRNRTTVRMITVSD
The assay can be described thus: Indirect flow cytometry, HeLa-CGM6/1. It counts as binding. To be noted: antibodies at 1/50 dilution of 1 mg/ml stocks. As to the method: The reactivity of antibodies was tested by flow cytometry with a Becton-Dickinson FACSCAN®. The biotinylated second antibody was directed against mouse IgG and was detected by a streptavidin/phycoerythrin conjugate. Tests were carried out with antibodies at 1/50 dilution of 1 mg/ml stocks.
The antibodies MN-3 and MN-15 were tested for recognition of HeLa cells transfected with cDNA coding for CEA (HeLa-CEA2), NCA-90 (HeLa-KNC6/S44) and NCA-95 (HeLa-CGM6/1). As a negative control, HeLa cells transfected with the plasmid pSV2-Neo (control HeLa cells, HeLa-NeoA) were used. In addition to the antibodies MN-3 and MN-15, three control antibodies were included: […]

The test system of assay [1] is MCA38 (CEACAM5−/CEACAM6−) adhesion to HUVEC. The assay can be described thus: Endothelial cell adhesion assay, MCA38. It counts as cell-based, murine. The note with it: 10 μg/mol Fab′. Here is the method:
(§1) Percentage adhesion of various tumor cells with varying amounts of expressed CEACAM5 and CEACAM6 to HUVEC cells in the absence or presence of MN-15 Fab′, MN-3 Fab′, or Ag8 Fab′ control. Cells were labeled with 1 μCi/mL of ^3H-thymidine and added to HUVEC cultures and incubated for 30 minutes at 37° C. Samples were washed thrice with PBS to remove unattached cells. Attached tumor cells were solubilized with 0.1 N NaOH and radioactivity was measured in a B-scintillation counter. The cpm attached/total cpm added (attaching potential) was determined. Results of a typical study are presented. Cell lines used include BT-20 (CEACAM5+/CEACAM6+), MCF-7 (CEACAM5−/CEACAM6+), HT-29 (CEACAM5−/CEACAM6+), Moser (CEACAM5+/CEACAM6−), MCA38cea (CEACAM5+/CEACAM6−), and MCA38 (CEACAM5−/CEACAM6−).
(§2) Endothelial cell adhesion assay—Human umbilical vein endothelial cells (HUVEC; Cambrex, San Diego, Calif.) were grown in collagen-coated dishes in EGM Media in a humidified atmosphere with 5% CO2 at 37° C. At passages 2 to 5, cells were plated at a density of 4×10^4 cells per well in 96-well plates 24 hours before the assay. Interleukin-1β (IL-1β, 1 ng/mol) was added 4 hours before the assay. […] Attached cells were solubilized with 0.1 N NaOH and radioactivity was measured in a β scintillation counter. The cpm attached/total cpm added (attaching potential) was determined.

Assay [2] concerns MCA38cea (human CEA-transfected line) adhesion to HUVEC. As to the kind of experiment: Endothelial cell adhesion assay, MCA38cea. To be noted: without antibody 11.68±0.77%. In kind it is cell-based, murine. Here is the method: as §1, §2
Assay [3] relates to HT-29 cells adhesion to HUVEC. The assay can be described thus: Endothelial cell adhesion assay, HT-29. In kind it is cell-based, human. Here is the method: (§3) Endothelial cell adhesion assay—Human umbilical vein endothelial cells (HUVEC; Cambrex, San Diego, Calif.) were grown in collagen-coated dishes in EGM Media in a humidified atmosphere with 5% CO2 at 37° C. At passages 2 to 5, cells were plated at a density of 4×10^4 cells per well in 96-well plates 24 hours before the assay. Interleukin-1β (IL-1β, 1 ng/mol) was added 4 hours before the assay. At the start of the study, the medium with the IL-1β was removed and fresh DMEM with 1% bovine serum albumin (BSA) added and incubated for 30 minutes. Fresh medium without antibodies or with 10 μg/mol of MN-15 Fab′, MN-3 Fab′, or Ag8 Fab′ was added. Tumor cells (1×10^6 cells/mol) prelabeled overnight with ^3H-thymidine (100 μL per well using 1.0 μCi/mL) were added to HUVEC cultures and incubated for 30 minutes at 37° C. with rotation in medium with 20% FBS. Samples were washed thrice with PBS to remove unattached cells. Attached cells were solubilized with 0.1 N NaOH and radioactivity was measured in a β scintillation counter. The cpm attached/total cpm added (attaching potential) was determined.

In assay [4] the test system is MCF-7 cells adhesion to HUVEC. The assay can be described thus: Endothelial cell adhesion assay, MCF-7. In kind it is cell-based, human. Here is the method: as §3
A further assay deals with BXPC3 cells. The assay can be described thus: Collagen-based invasion assay, BXPC3. In kind it is cell-based, human. The note with it: 10% FBS chemoattractant, 72-hour incubation. As to the method:
Collagen-based invasion assay—The assay was done using CHEMICON® Kit (#ECM551, MILLIPORE®, Billerica, Mass.). Tumor cells at 80% confluence and were serum-starved for 18 to 24 hours before the assay was used. Cells were harvested with 5 mol of 2 mmol/L EDTA/PBS per 100-mm dish and incubated at 37° C. for 5 to 15 minutes. Cells were collected into 10 to 20 mol of quenching medium (serum-free DMEM containing 5% BSA) to inactivate trypsin/EDTA from the harvesting buffer. Cells were pelleted, resuspended in quenching medium (1×10^6 cells/mol), and appropriate antibody Fabs were added to individual cell aliquots. Cell invasion potential was determined as follows. Baseline invasion and invasion in the presence of a chemoattractant (10% FBS) were measured after a 72-hour incubation period at 37° C. in a 5% CO2 incubator. The bottom side of the collagen-coated polycarbonate membrane insert of the invasion chamber was placed in 400 μL of cell stain for 20 minutes at room temperature and washed. The dye was extracted and transferred into a 96-well microtiter plate for colorimetric measurements (A560 nm).

B1: MN-15: murine Class I anti-CEA MAb, IgG1 kappa, binds A1B1 domain of CEACAM5 and CEACAM6 (antibody, V domains shown)
VL: DIQLTQSPAIMSASPGEKVTMTCSASSRVSYIHWYQQKSGTSPKRWIYGTSTLASGVPARFSGSGSGTSYSLTISSMEAEDAATYYCQQWSYNPPTFGAGTKLELKR
VH: EVRLVESGGGLVQGPGSLRLSCAASGFALTDYYMSWVRQSPGKTLEWLGFIANKANGHTTDYSPSVKGRFTISRDNSQTILYLQMNTLRTEDSATYYCARDMGIRWNFDVWGQGTTVTVSS
For B1, the “binding to NCA-95” value in the assay with NCA-95 (HeLa-CGM6/1) is given as “binds to all three antigens”.

B2: MN-15 Fab′: monovalent Fab′ fragment of murine MN-15 (antibody, V domains shown)
VL: DIQLTQSPAIMSASPGEKVTMTCSASSRVSYIHWYQQKSGTSPKRWIYGTSTLASGVPARFSGSGSGTSYSLTISSMEAEDAATYYCQQWSYNPPTFGAGTKLELKR
VH: EVRLVESGGGLVQGPGSLRLSCAASGFALTDYYMSWVRQSPGKTLEWLGFIANKANGHTTDYSPSVKGRFTISRDNSQTILYLQMNTLRTEDSATYYCARDMGIRWNFDVWGQGTTVTVSS
As for B2, the “effect on tumor cell-endothelial cell adhesion” value in assay [1] was “neither MN-3 Fab′ targeting the N domain nor MN-15 Fab′ targeting the A1B1 domain of CEACAM6 had an effect”. Besides, the endothelial cell binding in assay [2] amounted to 5.53±1.15%. The decrease in adhesion in assay [3] amounted to 48%; in assay [4], 41%. Also, in the assay with BXPC3 cells, the “reduction in cell invasion” value amounted to 44%.
